Among the targets are BD-CK2β (UniProt P67871); BD-CK2α (UniProt Q60737); BD-CKT2 (mouse) (UniProt Q8CH19); BD-CKT2 138-276 (mouse) (UniProt Q8CH19); BD-CKT2 1-137 (mouse) (UniProt Q8CH19).
Holding throughout (test): two-hybrid
Assay [1] has as its target GAL4-DB-CK2α′ fusion protein (mouse) (UniProt O54833).

UniProt P67871, sequence (P67871 whole entry): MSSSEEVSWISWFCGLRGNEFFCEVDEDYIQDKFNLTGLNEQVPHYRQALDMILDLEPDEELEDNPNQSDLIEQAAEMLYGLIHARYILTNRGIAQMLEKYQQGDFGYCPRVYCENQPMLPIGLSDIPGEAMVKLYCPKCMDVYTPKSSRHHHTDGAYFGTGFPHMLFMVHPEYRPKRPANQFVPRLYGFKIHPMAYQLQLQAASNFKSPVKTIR
UniProt Q60737, sequence (Q60737 whole entry): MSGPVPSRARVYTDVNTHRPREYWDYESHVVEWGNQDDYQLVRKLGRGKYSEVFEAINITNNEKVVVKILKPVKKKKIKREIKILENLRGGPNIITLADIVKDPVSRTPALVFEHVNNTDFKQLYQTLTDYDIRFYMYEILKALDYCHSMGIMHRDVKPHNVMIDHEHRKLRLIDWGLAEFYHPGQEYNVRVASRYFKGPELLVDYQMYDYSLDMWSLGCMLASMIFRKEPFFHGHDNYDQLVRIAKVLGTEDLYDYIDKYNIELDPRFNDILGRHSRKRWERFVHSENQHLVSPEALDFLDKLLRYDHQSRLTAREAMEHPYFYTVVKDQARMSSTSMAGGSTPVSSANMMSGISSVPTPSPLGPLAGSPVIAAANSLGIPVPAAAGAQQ

Turning to “CKT2 (CK2 Target protein 2), full length, in pACT2 (from UniProt Q8CH19 1-720) (natural protein)”, the β-Gal activity is less than 0.05 in the assay with BD-CK2β, 5.8 in assay [1] and 1 with BD-CK2α.

B1: CK2α′ as the active (activation) domain fusion (natural protein)
chain: MPGPAAGSRARVYAEVNSLRSREYWDYEAHVPSWGNQDDYQLVRKLGRGKYSEVFEAINITNNERVVVKILKPVKKKKIKREVKILENLRGGTNIIKLIDTVKDPVSKTPALVFEYINNTDFKQLYQILTDFDIRFYMYELLKALDYCHSKGIMHRDVKPHNVMIDHQQKKLRLIDWGLAEFYHPAQEYNVRVASRYFKGPELLVDYQMYDYSLDMWSLGCMLASMIFRKEPFFHGQDNYDQLVRIAKVLGTDELYGYLKKYHIDLDPHFNDILGQHSRKRWENFIHSENRHLVSPEALDLLDKLLRYDHQQRLTAKEAMEHPYFYPVVKEQSQPCAENTVLSSGLTAAR
With B1, the β-Gal activity in the assay with BD-CKT2 (mouse) was 5.2; with BD-CKT2 138-276 (mouse), 6.5; in the assay with BD-CKT2 1-137 (mouse), 2.8.

The values above are taken from paper PMC2677865.
